Measured values reported in paper PMC6286779, “HLA-A2-Restricted Epitopes Identified from MTA1 Could Elicit Antigen-Specific Cytotoxic T Lymphocyte Response” (Journal of Immunology Research, 2018).

Columns and labels:
[1] = test system: HLA-A2.1/K^b transgenic mice; test: Serum IFN-γ ELISA after immunization; assay type: in vivo; settings: mice immunized with 100 μg/ml MTA1(1–283) in IFA days 0 and 7; serum day 14; vs PBS, P < 0.001; n = 5
SW620 (HLA-A2+, MTA1+) = test: LDH cytotoxicity assay, CTLs induced in vitro; assay type: cell-based, human; settings: PBMCs induced by 50 μg/ml MTA1(1–283); E/T 50 : 1; LDH assay; n = 4
Experimental: (§1) CTL induction in vitro was conducted according to the procedures previously described. Briefly, PBMCs from eight HLA-A^∗02^+ healthy donors were isolated using Ficoll-Paque density gradient centrifugation and resuspended in RPMI 1640 medium supplemented with 10% FBS. Then, PBMCs were stimulated three times (once a week) with the indicated peptides (10 μg/ml) or protein MTA1(1–283) (at final concentrations of 0, 1, 10, 30, and 50 μg/ml) for 21 days. Human recombinant cytokine interleukin-2 (IL-2) (50 U/ml) was added on day 3 and 1 day after each stimulation. The cytotoxic assay (lactate dehydrogenase (LDH) assay) and IFN-γ secretion enzyme-linked immunospot (ELISPOT) assay were performed on day 21.
(§2) Cytotoxic activity of induced T cells was tested based on the quantitation of LDH release using the nonradioactive cytotoxicity assay kit (Promega, USA) at the gradient E/T ratio [29, 31]. Target cells which expressed different levels of MTA1 or peptide-pulsed T2 cells were used as target cells. The anti-human HLA-A2 antibody (BB7.2) was added 30 min before adding effector cells to determine the HLA restriction. Target cells (5 × 10^3/well) were cocultured with the effector cells at 37°C for 4 h. The percentage of specific lysis of the target cells was determined using the equation: percentage of specific lysis = [(experimental release − effector spontaneous release − target spontaneous release)/(target maximum release − target spontaneous release)] × 100.

[2] = test system: PBMCs from HLA-A*02+ healthy donors; test: IFN-γ ELISPOT of CTLs induced in vitro; assay type: cell-based, human; settings: PBMCs stimulated with MTA1(1–283) once a week for 21 days; stimulators T2 cells with peptide pool 50 μg/ml; n = 4
Experimental: as §1
The ELISPOT assay was performed using a commercial kit (Dakewe, China) according to the procedures previously described. Briefly, T2 cells incubated with/without candidate peptide (50 μg/ml) were used as the stimulating cells, effector cells (1 × 10^5) and stimulator cells (peptide-pulsed T2 cells or T2 cells only, 1 × 10^5) were seeded into the 96-well plate precoated with an anti-human (or anti-mouse) IFN-γ antibody. After incubation at 37°C for 18 h, cells were removed, and plates were processed for analysis as instructed. The spot number was determined automatically using a computer-assisted spot analyzer (Dakewe, China).

[3] = test system: HLA-A2.1/K^b transgenic mice; test: IFN-γ intracellular cytokine staining, CD8+ T cells; assay type: in vivo; settings: mice immunized with MTA1(1–283); splenocytes restimulated with peptide pool; T2 cells pulsed with each peptide; vs PBS, P < 0.001
Experimental: (§3) To test the effects of protein, each HLA-A2.1/K^b transgenic mouse was injected subcutaneously at the base of the tail with 100 μg MTA1(1–283) or the same volume of PBS emulsified in IFA twice on days 0 and 7. On day 14, spleen lymphocytes were harvested and stimulated by peptide pool (10 μg/ml) in vitro for another 6 days. LDH, IFN-γ ELISPOT, and IFN-γ intracellular cytokine staining assays were performed on day 6 after the in vitro stimulation. E/T ratios used in the LDH assay were 12.5 : 1, 25 : 1, and 50 : 1.
(§4) To test the protein MTA1(1–283) stimulation of CTL response in vivo, IFN-γ release of induced CTLs was determined by the intracellular cytokine staining assay according to our former study. In brief, on day 14, spleen lymphocytes were harvested and stimulated by peptide pool (10 μg/ml) in vitro for another 6 days. Then, restimulated splenocytes were incubated with peptide-loaded T2 cells or T2 cells only for 3 h. Subsequently, protein transport inhibitor cocktail was added to splenocytes for another 4 h. Then, those cells were stained with Anti-mouse CD3 PerCP-eFluor® 710 (clone: 17A2, eBioscience) and Anti-mouse CD8α PE (clone: 53–6.7, eBioscience) at 4°C for 30 min. […] Those cells were washed twice by permeabilization buffer and analyzed by flow cytometry.

[4] = test system: HLA-A2.1/K^b transgenic mice; test: IFN-γ intracellular cytokine staining, CD4+ T cells; assay type: in vivo; settings: mice immunized with MTA1(1–283); CD3+CD8− subset
Experimental: as §3, §4

[5] = test system: SW620 cells (HLA-A2+, MTA1+); test: LDH cytotoxicity assay, CTLs induced in HLA-A2.1/Kb transgenic mice; assay type: in vivo, human; settings: mice immunized with MTA1(1–283) days 0 and 7; E/T 50 : 1 and 25 : 1; significant vs PBS
Experimental: In vivo induction of peptide-specific CTLs was performed as previously described. Briefly, peptide (100 μg) and the IA^b-restricted HBV-core128 T helper epitope (140 μg) emulsified in incomplete Freund's adjuvant (IFA) were used to subcutaneously immunize at the base of the tail of HLA-A2.1/K^b transgenic mice three times on days 0, 5, and 10. On day 11, all mice were sacrificed through cervical dislocation. Spleen lymphocytes were isolated and restimulated once with 10 μg/ml peptide and 10 U/ml mIL-2 in vitro for an additional 6 days. LDH and IFN-γ ELISPOT assays were performed on day 6 after in vitro stimulation. […]
as §3, §2

B1: MTA1(1–283): recombinant fragment of MTA1, first 283 amino acids, expressed in E. coli from pET28a, containing the predominant epitopes (protein, UniProt Q13330 1-283, looked up, fragment)
chain: MAANMYRVGDYVYFENSSSNPYLIRRIEELNKTANGNVEAKVVCFYRRRDISSTLIALADKHATLSVCYKAGPGADNGEEGEIEEEMENPEMVDLPEKLKHQLRHRELFLSRQLESLPATHIRGKCSVTLLNETESLKSYLEREDFFFYSLVYDPQQKTLLADKGEIRVGNRYQADITDLLKEGEEDGRDQSRLETQVWEAHNPLTDKQIDQFLVVARSVGTFARALDCSSSVRQPSLHMSAAAASRDITLFHAMDTLHKNIYDISKAISALVPQGGPVLCRD
IFN-γ secretion in vivo (serum IFN-γ, ELISA) [1]: secreted more IFN-γ compared with the PBS control group
rate of lysis of SW620 cells by protein-induced CTLs (SW620 (HLA-A2+, MTA1+)): 50.01%
IFN-γ secretion of protein-induced CTLs, ELISPOT [2]: can secrete IFN-γ
percentage of IFN-γ+ CD8+ T cells [3]: a higher percentage of IFN-γ ^+ CD8^+ T cells compared with the PBS group
percentage of IFN-γ+ CD4+ T cells [4]: a certain percentage of IFN-γ ^+ CD4^+ T cells
lysis of SW620 tumor cells by T cells induced in vivo by protein [5]: could kill SW620 tumor cells
